The values below come from patent publication US20060073572A1, “Cytokine structurally related to IL-17” (The Johns Hopkins University, priority 2001, published 2006).

Assay [1] deals with ICAM-1. Kind of assay: ICAM-1 surface protein expression on NHBE cells by flow cytometry. Particulars: 100 ng/ml, 48 hours, mean±SD (n=4). Format: cell-based, human. The protocol: FIG. 4. Effect of ML-1 on ICAM-1 surface expression on NHBE cells by Flow Cytometry. NHBE cells were treated for 48 hours under following conditions: medium only, rIL-17 (100 ng/ml), purified His-tagged protein (Positope, 100 ng/ml), or ML-1 (100 ng/ml) as indicated. The mean fluorescence intensity of ICAM-1 surface expression was measured. The experiment was conducted four times. The results shown are from a representative experiment. * p<0.01.
To determine whether ML-1 is able to induce ICAM-1 expression on NHBE cells, surface expression of ICAM-1 on NHBE cells was measured and the effects of ML-1 and IL-17 were compared.
NHBE cells were treated with IL-17 (100 ng/ml), ML-1 (100 ng/ml), or a control His protein (Positope, 100 ng/ml). The cells were harvested following treatment with 0.1% trypsin-0.02% EDTA at 37° C. for 6 minutes and suspended in PBS containing 2% BSA and 0.02 % sodium azide. One million cells were incubated with a mouse anti-human ICAM-1 monoclonal antibody (R&D Systems, Minneapolis, Minn.) on ice for 30 minutes. […] After three additional washes in PBS, the cells were resuspended in PBS and immediately analyzed with a FACScan flow cytometer (Becton Dickinson, Mountain View, Calif.). […] Indices are expressed as mean±SD (n=4).
(In general: A flow cytometer gives signals particle by particle.)

The subject of assay [2] is ERK1/2. As to the kind of experiment: Western blotting of ERK1/2 phosphorylation in PBECs. Type of assay: cell-based, human. Particulars: ML-1 100 ng/ml. As for the experimental part: FIGS. 6A-6D. Kinetic activation of ERK1/2 by ML-1 in PBECs (FIG. 6A) and HUVECs (FIG. 6B). The cells were incubated with or without ML-1 (100 ng/ml) for different time points as indicated. Western blotting analysis was performed by using antibodies against different MAP kinases as described in Example 8. FIGS. 6C and 6D. Effect of PD98059 on ML-1-induced phosphorylation of ERK1/2 in PBECs (FIG. 6C) and HUVECs (FIG. 6D). The cells were preincubated with PD98059 ([…]) or DMSO vehicle control for 1 hour, followed by stimulation of PBECs and HUVECs with medium or ML-1 for 20 minutes or 10 minutes, respectively. The results shown are representative of three separate experiments.
For analysis of activation of MAP kinases, PBECs were treated with IL-17 (100 ng/ml) for various time periods, with or without the MEK 1/2 inhibitor PD98059 ([…]; Calbiochem, La Jolla, Calif.) (15), the p38 inhibitor SB202190 (0.5-10 μM; ref. 16), or a vehicle control, DMSO (Me2SO) for 1 hour. […] Following the treatment, the cells were washed with ice-cold PBS. Cell pellets were immediately lysed in cold lysis buffer [20 mM Tris (pH 7.4), 4 mM EDTA, 2 mM EGTA, 1 mM PMSF, […] aprotinin, 200 mg/ml leupeptin, 50 mM NaF, 5 mM NaRP2O7, 1 mM Na3VO4, and 1% Nonidet P40; all purchased from Sigma]. Extracts (1×10^6 cell equivalents/lane) were suspended with an equal volume of 2× loading buffer [0.1 M Tris-HCl (pH 6.8)], 4% SDS, 0.005% bromophenol blue, and 20% glycerol) containing 2-ME (0.7 M) and subjected to 4-20% Tris-glycine gel electrophoresis (NOVEX, San Diego, Calif.). Gels were then transferred to PVDF membranes (BIO-RAD, Hercules, Calif.) with a Trans Blot apparatus (NOVEX). The membranes were immersed overnight in This-buffered saline/Tween 20 containing 5% nonfat dry skim milk (Carnation, Los Angeles, Calif.).
Immunoreactive proteins were detected using antibodies against various kinases and phosphorylated kinases. […] Western blotting detection reagents (Amersham) and Hyper ECL luminescence detection film (Amersham) were used. […]
A general note: A western blot detects proteins with antibodies after separation by electrophoresis.

B1: ML-1: new member of the IL-17 cytokine family, SEQ ID NO:2; His-tagged recombinant protein expressed in COS-7 cells and affinity purified (protein, listed as Homo sapiens)
chain: MKLDIGIINENQRVSMSRNIESRSTSPWNYTVTWDPNRYPSEVVQAQCRNLGCINAQGKEDISMNSVPIQQETLVVRRKHQGCSVSFQLEKVLVTVGCTCVTPVIHHVQ
modifications: His tag
For B1, the “ICAM-1 surface expression, mean fluorescence intensity (MFI)” value in assay [1] worked out at 31.42±4.39. In assay [2], the “time of maximum phosphorylation of ERK1/2” value was found to be 20 min and the “time of return of ERK1/2 phosphorylation to baseline levels” value is at most 60 min.
